Here are results for one molecule from patent US20100151573A1 (published 2010).

Assay [1] deals with T1, Recombinant human P-selectin/Fc chimera (rhP/Fc), not conjugated, adsorbed on microtubing (human, UniProt P16109 42-771).
T1 construct: Microtubing pre-incubated with rhP/Fc at 60 ug/ml in PBS for 2 h, then coated with non-targeting nanoparticles; Fc part of the bought chimera not given
T1 sequence (looked up): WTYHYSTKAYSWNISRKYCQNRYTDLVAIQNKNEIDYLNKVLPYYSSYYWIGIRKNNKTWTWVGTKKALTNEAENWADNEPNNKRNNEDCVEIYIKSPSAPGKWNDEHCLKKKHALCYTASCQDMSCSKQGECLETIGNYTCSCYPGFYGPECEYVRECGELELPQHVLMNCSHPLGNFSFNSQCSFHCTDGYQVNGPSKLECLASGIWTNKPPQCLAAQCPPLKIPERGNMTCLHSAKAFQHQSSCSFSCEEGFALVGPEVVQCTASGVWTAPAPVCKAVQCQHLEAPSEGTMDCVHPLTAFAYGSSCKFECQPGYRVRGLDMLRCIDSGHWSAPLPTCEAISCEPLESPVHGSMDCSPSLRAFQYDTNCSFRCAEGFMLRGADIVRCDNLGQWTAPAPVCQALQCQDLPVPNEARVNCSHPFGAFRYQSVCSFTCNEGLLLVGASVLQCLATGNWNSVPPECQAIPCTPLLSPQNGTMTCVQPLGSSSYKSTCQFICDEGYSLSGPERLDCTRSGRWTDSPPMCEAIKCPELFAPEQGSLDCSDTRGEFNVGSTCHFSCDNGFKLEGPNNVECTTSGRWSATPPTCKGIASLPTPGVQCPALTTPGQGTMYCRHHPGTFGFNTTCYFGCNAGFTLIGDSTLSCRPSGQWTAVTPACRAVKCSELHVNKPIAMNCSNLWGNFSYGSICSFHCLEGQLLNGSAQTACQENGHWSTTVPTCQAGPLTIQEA
Nature of the assay: perfusion of HL60 cells through rhP/Fc coated microtube.

For assay [2], the target named is T2, Recombinant human P-selectin/Fc chimera covalently coupled to DSPE-PEG2000 maleimide and inserted into … (human, UniProt P16109 42-771, sulfhydryl groups introduced at primary amines with Traut's reagent (2-iminothiolane) and linked to the maleimide group of DSPE-PEG2000; positions not stated).
T2 construct: Bought rhP/Fc (R&D Systems); also called rhP/Fc-DSPE-PEG2000 maleimide; PS-DSPE-PEG NP; Fc part of the bought chimera not given
T2 sequence (looked up): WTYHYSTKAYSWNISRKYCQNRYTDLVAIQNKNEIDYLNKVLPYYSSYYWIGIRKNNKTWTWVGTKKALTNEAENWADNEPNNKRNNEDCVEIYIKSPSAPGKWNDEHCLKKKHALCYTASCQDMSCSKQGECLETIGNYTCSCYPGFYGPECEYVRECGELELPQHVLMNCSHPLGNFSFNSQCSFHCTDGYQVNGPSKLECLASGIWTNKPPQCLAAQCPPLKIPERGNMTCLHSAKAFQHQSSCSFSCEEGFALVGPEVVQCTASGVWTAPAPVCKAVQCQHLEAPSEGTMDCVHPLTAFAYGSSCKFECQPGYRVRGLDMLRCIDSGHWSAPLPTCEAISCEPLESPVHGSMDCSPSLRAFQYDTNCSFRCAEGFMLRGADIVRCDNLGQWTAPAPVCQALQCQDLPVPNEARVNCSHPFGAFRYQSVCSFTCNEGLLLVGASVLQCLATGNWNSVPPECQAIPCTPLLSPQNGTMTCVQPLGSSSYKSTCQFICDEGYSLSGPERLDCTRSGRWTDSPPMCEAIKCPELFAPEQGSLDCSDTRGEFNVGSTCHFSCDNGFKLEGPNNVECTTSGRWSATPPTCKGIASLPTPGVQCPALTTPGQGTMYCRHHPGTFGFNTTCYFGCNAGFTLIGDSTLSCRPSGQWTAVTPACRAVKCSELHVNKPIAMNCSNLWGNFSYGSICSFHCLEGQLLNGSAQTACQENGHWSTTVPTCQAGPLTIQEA
Description: perfusion of HL60 cells through nanoparticle coated microtube, microscopy. As to the method: P-selectin nanoparticles were coated onto the surface of microrenathane tubing for 2 h at RT, and then perfusion experiments conducted. (a) and (b) were taken before perfusion, (c) and (d) were taken after perfusion but before the cells were released. (e) and (f) were taken after the adherent cells were released from the microtubing. In (g) and (h), HL60 cells were perfused through the P-selectin coated tube. In (i) and (j), cells were pre-incubated with anti-PSGL-1 for 1 h at RT and then perfused through the P-selectin coated tube. In (k) and (l), the perfused cells were MCF7. In (m) and (n), the P-selectin nanoparticles were incubated with anti-P-selectin for 1 h at RT and then applied to the microtube coating. In (o) and (p), P-selectin was replaced with IgG to construct the coating nanoparticles. The pictures were taken after cellular perfusion but before the cells were released from the surface. [III]. Nanoparticles alone could not (q, r, s) but P-selectin nanoparticles could (t, u, v) deliver Cy3-siRNA into HL60 cells under rolling conditions in the microtubing. q and t were taken in epifluorescence mode, r and u were taken in brightfield mode, and s and v are the merge of q and r, and […]. TRITC represents Tetramethyl Rhodamine Iso-Thiocyanate filter. […]

B1: P-selectin glycoprotein ligand-1 (PSGL-1) on HL60 cells (receptor, UniProt Q14242 42-412, looked up)
chain: QATEYEYLDYDFLPETEPPEMLRNSTDTTPLTGPGTPESTTVEPAARRSTGLDAGGAVTELTTELANMGNLSTDSAAMEIQTTQPAATEAQTTQPVPTEAQTTPLAATEAQTTRLTATEAQTTPLAATEAQTTPPAATEAQTTQPTGLEAQTTAPAAMEAQTTAPAAMEAQTTPPAAMEAQTTQTTAMEAQTTAPEATEAQTTQPTATEAQTTPLAAMEALSTEPSATEALSMEPTTKRGLFIPFSVSSVTHKGIPMAASNLSVNYPVGAPDHISVKQCLLAILILALVATIFFVCTVVLAVRLSRKGHMYPVRNYSPTEMVCISSLLPDGGEGPSATANGGLSKAKSPGLTPEPREDREGDDLTLHSFLP
notes: whole, on cells; also called P-selectin receptor; PSGL-1 receptors in HL60 cells
In the case of B1, the binding result in assay [1] and in assay [2] was “binds” throughout.
